Article PMC7595633 (PLoS Neglected Tropical Diseases, 2020)
“And” between values parts separate entries of the source, which are not always exact repeats. Equal entries are not always repeated.

What was measured:
[1] = target: the molecule itself; assay: AUC; sedimentation equilibrium; tetramer to dimers; 0.5, 0.75 and 1.0 mg/mL; 8,000, 10,000 and 12,000 rpm, 4°C; global fit in SEDPHAT
[2] = target: the molecule itself; assay: native gel or EMSA; PhastGel gradient 8-25%, room temperature; 1 mg/mL (methods), 2 mg/mL (legend of Fig 1D); Coomassie stained

B1: Trypanosoma brucei selenophosphate synthetase (TbSEPHS2), recombinant full-length (enzyme, UniProt Q38A34 1-393, looked up)
chain: MSEKEGKVIPETNGMKRPRFDPVKLGLPEEFTLTDYTRLKGCSCKVPQPELLALLQSVSTTPGRRDVGMDCSIVKLQHKDETGKPLYMVSTTDFFFPSVEDPYLQGQIGAANVLSDLYSTGIDRCDTVLMLLAASTDMDKTEREVCTQEMMKGFVDHVRLAGSDVTGGQTVMNPWPLIGGIATSVVAESQMIRPTGLQPGDILVLTKPLGCQIAVNLKQWLRRPSPIFEEQIQGKMDSEEIEELYNAAADGMKRLNRMAAALMHSHGAHGATDVTGFGILGHAKNLGSAQKADVCLVLDSLPMYRGAVKASKLMGDKYRLFEGYAAETSGGLLVAFGTREEAEGYIRELYETDGEPAWVVGRVVRREGSAPYALLQKDYKIIEVGAKVNDKII
notes: selenophosphate synthetase SEPHS2 of Trypanosoma brucei, Tb927.10.9410, 393 residues (from the limits of the truncated constructs); also called SPS2; TbSPSH2
Kd [1]: 161 ± 10 µM
stoichiometry N [2]: 2 and 4
